Experimental findings from article PMC3964918 (RNA, 2014) are described below.

Like-named read-outs stand apart in the source and are kept apart here.

What all share (experiment): far-Western, overlay or dot blot
The target in test [1] is T1, SynPnp, recombinant Synechocystis PNPase (Synechocystis PCC6803, UniProt P72659 1-718).
T1 sequence (looked up): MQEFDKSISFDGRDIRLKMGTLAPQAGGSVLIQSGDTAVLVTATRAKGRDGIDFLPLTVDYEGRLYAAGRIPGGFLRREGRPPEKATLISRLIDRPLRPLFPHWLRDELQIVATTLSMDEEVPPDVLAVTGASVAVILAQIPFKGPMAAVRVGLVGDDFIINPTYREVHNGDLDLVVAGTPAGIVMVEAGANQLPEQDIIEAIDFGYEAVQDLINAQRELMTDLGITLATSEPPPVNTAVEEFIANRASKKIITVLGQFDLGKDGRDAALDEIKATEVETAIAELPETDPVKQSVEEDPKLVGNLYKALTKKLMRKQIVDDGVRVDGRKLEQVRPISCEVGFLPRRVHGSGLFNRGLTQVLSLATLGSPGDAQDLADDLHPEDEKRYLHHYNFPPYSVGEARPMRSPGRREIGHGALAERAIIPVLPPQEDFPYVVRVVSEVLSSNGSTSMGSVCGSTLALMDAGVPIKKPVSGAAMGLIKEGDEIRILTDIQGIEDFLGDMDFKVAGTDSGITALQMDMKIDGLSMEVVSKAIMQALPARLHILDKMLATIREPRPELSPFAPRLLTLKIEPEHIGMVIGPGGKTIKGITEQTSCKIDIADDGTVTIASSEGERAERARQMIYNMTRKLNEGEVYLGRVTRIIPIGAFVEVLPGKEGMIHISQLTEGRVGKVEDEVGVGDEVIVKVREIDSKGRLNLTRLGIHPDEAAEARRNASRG

Test [2] addresses T1, SynPnp, recombinant Synechocystis PNPase. The source holds these as a separate data set.
The target in test [3] is T2, AnaPnp, recombinant Anabaena PNPase (Anabaena PCC7120, UniProt Q8YP11 1-718).
T2 sequence (looked up): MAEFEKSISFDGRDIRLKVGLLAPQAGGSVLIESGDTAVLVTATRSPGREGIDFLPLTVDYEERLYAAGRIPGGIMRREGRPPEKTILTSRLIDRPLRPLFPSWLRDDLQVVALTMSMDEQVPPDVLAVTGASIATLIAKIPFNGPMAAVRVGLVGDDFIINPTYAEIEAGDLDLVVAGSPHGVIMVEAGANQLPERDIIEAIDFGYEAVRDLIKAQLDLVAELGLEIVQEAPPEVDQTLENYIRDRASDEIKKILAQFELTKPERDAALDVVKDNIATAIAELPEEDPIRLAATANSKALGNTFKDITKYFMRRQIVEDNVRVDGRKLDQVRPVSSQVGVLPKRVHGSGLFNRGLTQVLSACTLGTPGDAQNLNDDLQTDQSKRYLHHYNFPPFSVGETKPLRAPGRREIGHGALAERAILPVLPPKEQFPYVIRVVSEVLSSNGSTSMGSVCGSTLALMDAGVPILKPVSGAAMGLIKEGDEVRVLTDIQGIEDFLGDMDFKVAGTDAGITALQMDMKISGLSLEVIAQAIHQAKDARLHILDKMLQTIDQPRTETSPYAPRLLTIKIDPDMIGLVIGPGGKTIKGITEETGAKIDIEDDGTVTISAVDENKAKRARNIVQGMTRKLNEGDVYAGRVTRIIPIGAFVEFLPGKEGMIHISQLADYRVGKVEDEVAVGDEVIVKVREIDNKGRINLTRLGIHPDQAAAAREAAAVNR

B1: synthetic nonapeptide of C4 (peptide)
peptide: RRRRRRSSA
As to B1, the binding result in test [1] was “binds”.

B2: GFP-C4b (GFP fused at its C-terminus to the C4 nonapeptide) (peptide)
chain: RRRRRRSSA
For B2, the binding result in test [2] was “binds”.

B3: GFP-C4a (GFP fused at its C-terminus to C4 with four flanking residues at both ends) (peptide)
chain: STANRRRRRRSSASDSD
For B3, the binding result in test [3] is recorded as “binds”.
